PMC4751278 (2016)

Target: T1, Hik2-GST (full-length Histidine kinase 2 of Synechocystis sp. PCC 6803, GST-tagged) (Synechocystis sp. (strain ATCC 27184 / …, UniProt P73276))
T1 chain: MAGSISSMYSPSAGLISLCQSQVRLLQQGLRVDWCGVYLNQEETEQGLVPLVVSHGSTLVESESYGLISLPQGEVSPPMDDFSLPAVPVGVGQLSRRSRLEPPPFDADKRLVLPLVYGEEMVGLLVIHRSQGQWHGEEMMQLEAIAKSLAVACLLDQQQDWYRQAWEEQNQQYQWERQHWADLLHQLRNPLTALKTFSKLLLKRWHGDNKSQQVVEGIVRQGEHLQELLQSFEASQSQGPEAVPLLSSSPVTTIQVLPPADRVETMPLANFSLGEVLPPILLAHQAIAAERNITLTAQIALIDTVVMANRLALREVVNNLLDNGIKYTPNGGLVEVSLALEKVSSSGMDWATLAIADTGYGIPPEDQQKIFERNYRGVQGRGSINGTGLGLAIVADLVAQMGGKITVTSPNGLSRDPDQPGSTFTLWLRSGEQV
Assay: GST pull-down

binding result: binds
B1: Rre1_Rec-His6 (receiver domain of Response regulator 1) (protein)
chain: MAEPISLLLVDDEPGVRESVQAFLEDSGDFKVDLAANATEAWDYLQHHLPALVISDIMMPQVDGYQFLQKLREDARFQSLPVVFLTARGMTGDRIQGYQTGCDAFLSKPFDPDELEAIVRNLL
